Assay results taken from US20150038427A1 (SYMIC BIOMEDICAL, published 2015).
Ends that are not written are not given here. * marks the point of attachment. Dansyl = CN(C)c1cccc2c(S(=O)(=O)*)cccc12

Experiments:
[1] = target: T1, collagen; assay: fluorescence plate binding assay, dansyl peptide on collagen-coated 96-well plate, equilibrium
T1 construct: also called collagen-treated well; collagen surface
Protocol: (§1) Binding assays were done in a 96-well high-binding plate, black with a clear bottom (Costar). Collagen was compared to untreated wells and BSA coated wells. Collagen and BSA were immobilized at 37° C. for 1 hr by incubating 90 μL/well at concentrations of 2 mg/mL in 10 mM HCl and 1× PBS, respectively. Each well was washed 3× with 1× PBS after incubating. Z-SILY was dissolved in 1× PBS at concentrations from 100 μM to 10 nM in 10-fold dilutions. Wells were incubated for 30 min at 37° C. and rinsed 3× with PBS and then filled with 90 μL of 1× PBS. Fluorescence readings were taken on an M5 Spectramax Spectrophotometer (Molecular Devices) at excitation/emission wavelengths of 335 nm/490 nm respectively.

[2] = target: T1, collagen; assay: fluorescence plate binding assay, dansyl peptide on collagen-coated wells, curve fitted to the data of FIG. 3
Protocol: as §1

Kd [1]: 860 nM
EC50 (read off the curve) [2]: ~900 nM
B1: Dansyl-GRRANAALKAGELYKSILYGC (peptide)
peptide: Dansyl-GRRANAALKAGELYKSILYGC
notes: Fluorescently labelled version of SILY, tested as free peptide; also called ZSILY; Z-SILY
